The numbers were not newly measured in PMC9260958, which cites them from elsewhere.

For the data set, the target named is Cys647 (UniProt position 647, LGEVHCGTNVR). Description: chemical modification (pH dependence of enzyme inactivation kinetics). The following applies: not stated (the inactivator is not named in the sentence that gives the value).

For the substance “Protein arginine deiminase 2 (peptidylarginine deiminase 2, PAD2) (Homo sapiens (inferred; not stated in the article))”, the pKa result is “∼8.2”.
